# How the values were obtained:
# [1] = target: ACTL6B (human) (UniProt O94805); assay: HA-bait purification from HEK-293T nuclear extract, mass spectrometry, peptide count
# [2] = target: SMARCA2 (human) (UniProt P51531); assay: as above
# [3] = target: SMARCD2 (human) (UniProt Q92925); assay: as above
# [4] = target: BCL7C (human) (UniProt Q8WUZ0); assay: as above
# [5] = target: PHF10 (human) (UniProt Q8WUB8); assay: as above
# [6] = target: ACTL6A (human) (UniProt O96019); assay: as above
# [7] = target: SMARCA4 (human) (UniProt P51532); assay: as above
# Sequence of SMARCA4 (human) (P51532 whole entry): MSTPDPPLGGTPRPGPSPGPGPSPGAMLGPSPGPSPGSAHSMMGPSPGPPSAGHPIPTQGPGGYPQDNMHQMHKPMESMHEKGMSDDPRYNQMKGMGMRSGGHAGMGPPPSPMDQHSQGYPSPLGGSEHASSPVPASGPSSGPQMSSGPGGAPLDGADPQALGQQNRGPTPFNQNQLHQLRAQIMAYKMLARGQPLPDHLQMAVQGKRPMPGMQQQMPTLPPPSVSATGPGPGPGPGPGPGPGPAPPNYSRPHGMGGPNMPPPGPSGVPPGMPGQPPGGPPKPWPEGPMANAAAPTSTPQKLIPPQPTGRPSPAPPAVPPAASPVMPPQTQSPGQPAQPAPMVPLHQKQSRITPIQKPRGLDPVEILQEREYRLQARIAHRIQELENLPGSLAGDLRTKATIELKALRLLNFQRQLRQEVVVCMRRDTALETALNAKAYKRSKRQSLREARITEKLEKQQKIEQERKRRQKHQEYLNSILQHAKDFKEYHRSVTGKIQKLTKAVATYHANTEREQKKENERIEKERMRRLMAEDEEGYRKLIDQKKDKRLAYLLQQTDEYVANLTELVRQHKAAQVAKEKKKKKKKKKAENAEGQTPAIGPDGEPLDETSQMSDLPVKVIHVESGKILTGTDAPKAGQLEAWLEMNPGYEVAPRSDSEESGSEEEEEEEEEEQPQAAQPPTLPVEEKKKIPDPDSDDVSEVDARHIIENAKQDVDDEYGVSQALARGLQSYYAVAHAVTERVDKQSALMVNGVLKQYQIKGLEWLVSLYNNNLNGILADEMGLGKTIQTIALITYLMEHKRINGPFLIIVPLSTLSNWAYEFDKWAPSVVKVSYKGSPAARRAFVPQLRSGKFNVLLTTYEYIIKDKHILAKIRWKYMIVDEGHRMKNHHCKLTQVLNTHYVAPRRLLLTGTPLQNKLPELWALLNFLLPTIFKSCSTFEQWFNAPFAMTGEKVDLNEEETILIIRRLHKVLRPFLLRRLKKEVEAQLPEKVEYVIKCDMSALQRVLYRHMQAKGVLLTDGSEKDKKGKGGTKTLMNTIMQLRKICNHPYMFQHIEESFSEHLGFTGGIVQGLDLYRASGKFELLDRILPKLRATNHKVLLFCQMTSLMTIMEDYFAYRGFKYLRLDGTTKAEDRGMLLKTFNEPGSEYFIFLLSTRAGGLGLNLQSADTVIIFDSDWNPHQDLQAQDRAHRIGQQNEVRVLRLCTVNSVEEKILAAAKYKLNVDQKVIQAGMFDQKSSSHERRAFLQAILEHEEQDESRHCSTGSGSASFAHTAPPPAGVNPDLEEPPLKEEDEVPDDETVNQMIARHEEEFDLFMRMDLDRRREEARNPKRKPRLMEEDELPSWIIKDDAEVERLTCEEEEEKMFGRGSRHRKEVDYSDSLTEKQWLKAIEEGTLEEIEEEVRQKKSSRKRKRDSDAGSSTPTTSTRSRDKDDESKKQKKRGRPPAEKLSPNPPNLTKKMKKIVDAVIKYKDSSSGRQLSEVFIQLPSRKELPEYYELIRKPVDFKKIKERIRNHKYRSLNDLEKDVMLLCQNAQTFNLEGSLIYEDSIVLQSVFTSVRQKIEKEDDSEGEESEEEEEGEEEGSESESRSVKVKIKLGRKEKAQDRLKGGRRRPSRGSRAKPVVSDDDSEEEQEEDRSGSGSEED
# [8] = target: ARID2 (human) (UniProt Q68CP9); assay: as above
# [9] = target: SMARCC1 (human) (UniProt Q92922); assay: as above
# [10] = target: PBRM1 (human) (UniProt Q86U86); assay: as above
# [11] = target: SMARCD3 (human) (UniProt Q6STE5); assay: as above
# Sequence of SMARCD3 (human) (Q6STE5 2-483 limits assumed): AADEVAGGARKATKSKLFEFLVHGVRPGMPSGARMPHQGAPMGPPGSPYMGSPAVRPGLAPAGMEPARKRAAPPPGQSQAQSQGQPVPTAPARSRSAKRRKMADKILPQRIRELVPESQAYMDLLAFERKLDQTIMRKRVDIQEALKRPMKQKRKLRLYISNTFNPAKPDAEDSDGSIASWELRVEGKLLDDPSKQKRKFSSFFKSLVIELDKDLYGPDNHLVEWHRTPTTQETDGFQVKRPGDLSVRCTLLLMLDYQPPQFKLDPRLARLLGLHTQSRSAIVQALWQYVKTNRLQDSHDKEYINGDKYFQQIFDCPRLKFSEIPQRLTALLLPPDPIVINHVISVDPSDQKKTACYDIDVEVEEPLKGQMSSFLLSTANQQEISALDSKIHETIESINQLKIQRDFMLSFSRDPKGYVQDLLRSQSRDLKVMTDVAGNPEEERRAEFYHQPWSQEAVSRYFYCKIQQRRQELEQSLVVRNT
# [12] = target: DPF2 (human) (UniProt Q92785); assay: as above
# [13] = target: SMARCE1 (human) (UniProt Q969G3); assay: as above
# [14] = target: SMARCB1 (human) (UniProt Q12824); assay: as above
# Sequence of SMARCB1 (human) (Q12824 whole entry): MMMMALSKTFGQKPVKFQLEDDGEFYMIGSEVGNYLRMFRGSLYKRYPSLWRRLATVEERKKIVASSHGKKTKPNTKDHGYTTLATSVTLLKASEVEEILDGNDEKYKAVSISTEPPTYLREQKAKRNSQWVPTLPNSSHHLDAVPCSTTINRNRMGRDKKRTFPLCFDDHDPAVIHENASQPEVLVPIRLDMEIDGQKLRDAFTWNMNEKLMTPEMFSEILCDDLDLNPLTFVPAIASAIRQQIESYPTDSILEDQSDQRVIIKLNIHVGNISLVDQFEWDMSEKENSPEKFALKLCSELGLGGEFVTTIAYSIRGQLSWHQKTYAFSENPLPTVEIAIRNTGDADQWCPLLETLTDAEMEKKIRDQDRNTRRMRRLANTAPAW
# [15] = target: SMARCC2 (human) (UniProt Q8TAQ2); assay: as above
# Sequence of SMARCC2 (human) (Q8TAQ2 whole entry): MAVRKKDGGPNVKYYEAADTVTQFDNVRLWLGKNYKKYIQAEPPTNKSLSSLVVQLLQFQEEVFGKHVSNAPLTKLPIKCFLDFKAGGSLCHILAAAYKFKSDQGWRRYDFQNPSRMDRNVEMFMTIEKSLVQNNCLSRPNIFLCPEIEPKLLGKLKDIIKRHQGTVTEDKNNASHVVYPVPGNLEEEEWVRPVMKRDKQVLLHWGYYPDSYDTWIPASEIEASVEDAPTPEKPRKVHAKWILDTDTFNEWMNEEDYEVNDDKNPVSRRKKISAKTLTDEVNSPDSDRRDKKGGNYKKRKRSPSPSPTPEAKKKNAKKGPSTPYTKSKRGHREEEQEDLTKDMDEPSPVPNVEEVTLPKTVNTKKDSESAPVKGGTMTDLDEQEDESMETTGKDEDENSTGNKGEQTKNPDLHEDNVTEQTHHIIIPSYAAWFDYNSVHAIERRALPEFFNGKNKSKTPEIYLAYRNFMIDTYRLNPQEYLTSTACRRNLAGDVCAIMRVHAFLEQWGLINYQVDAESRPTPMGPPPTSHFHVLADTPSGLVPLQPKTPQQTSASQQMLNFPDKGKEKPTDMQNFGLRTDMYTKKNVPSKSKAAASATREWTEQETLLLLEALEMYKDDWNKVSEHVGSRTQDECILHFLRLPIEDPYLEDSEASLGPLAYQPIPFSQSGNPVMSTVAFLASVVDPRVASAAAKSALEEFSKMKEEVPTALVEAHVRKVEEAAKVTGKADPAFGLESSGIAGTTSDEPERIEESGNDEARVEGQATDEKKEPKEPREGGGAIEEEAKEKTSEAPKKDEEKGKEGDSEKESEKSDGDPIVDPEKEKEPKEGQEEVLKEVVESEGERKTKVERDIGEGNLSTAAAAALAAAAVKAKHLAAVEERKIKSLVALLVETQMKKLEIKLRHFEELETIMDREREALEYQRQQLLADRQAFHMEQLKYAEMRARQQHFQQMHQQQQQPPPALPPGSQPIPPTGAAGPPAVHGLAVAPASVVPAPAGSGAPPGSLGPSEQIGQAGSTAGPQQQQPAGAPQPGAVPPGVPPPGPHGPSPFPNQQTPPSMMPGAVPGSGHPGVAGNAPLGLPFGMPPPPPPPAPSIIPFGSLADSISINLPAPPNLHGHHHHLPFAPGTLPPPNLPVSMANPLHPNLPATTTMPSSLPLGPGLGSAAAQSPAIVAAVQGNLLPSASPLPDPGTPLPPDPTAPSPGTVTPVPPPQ
# [16] = target: BCL7B (human) (UniProt Q9BQE9); assay: as above
# [17] = target: BCL7A (human) (UniProt Q4VC05); assay: as above
# Sequence of BCL7A (human) (Q4VC05 whole entry): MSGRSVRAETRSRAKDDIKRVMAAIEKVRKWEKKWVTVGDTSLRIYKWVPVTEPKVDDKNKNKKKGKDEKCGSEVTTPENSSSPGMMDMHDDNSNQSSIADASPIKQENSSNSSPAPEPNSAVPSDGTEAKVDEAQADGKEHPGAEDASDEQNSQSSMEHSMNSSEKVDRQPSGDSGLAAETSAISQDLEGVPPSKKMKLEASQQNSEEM
# [18] = target: GLTSCR1L (human) (UniProt Q6AI39); assay: as above
# [19] = target: GLTSCR1 (human) (UniProt Q9NZM4); assay: as above
# [20] = target: SS18 (human) (UniProt Q15532); assay: as above
# Sequence of SS18 (human) (Q15532 2-418 limits assumed): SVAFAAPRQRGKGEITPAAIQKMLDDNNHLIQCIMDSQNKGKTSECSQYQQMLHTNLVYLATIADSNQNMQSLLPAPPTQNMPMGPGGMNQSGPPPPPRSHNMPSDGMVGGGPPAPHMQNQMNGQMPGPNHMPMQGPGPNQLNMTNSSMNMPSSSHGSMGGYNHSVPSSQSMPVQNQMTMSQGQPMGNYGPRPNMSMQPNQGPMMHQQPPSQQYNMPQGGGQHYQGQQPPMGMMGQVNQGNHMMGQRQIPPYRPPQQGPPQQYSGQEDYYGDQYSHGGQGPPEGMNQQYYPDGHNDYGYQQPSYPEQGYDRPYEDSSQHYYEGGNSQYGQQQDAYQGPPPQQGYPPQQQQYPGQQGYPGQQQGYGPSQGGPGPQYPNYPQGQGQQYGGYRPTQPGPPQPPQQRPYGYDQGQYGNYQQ
# [21] = target: SMARCD1 (human) (UniProt Q96GM5); assay: as above
# [22] = target: SMARCA2 (human) (UniProt P51531); assay: HA-bait purification from HEK-293T nuclear extract, glycerol gradient fractions 13-14, mass spectrometry, peptide count
# [23] = target: SMARCD2 (human) (UniProt Q92925); assay: as above
# [24] = target: BCL7C (human) (UniProt Q8WUZ0); assay: as above
# [25] = target: ACTL6A (human) (UniProt O96019); assay: as above
# [26] = target: SS18 (human) (UniProt Q15532); assay: as above
# [27] = target: SMARCA4 (human) (UniProt P51532); assay: as above
# [28] = target: SMARCC1 (human) (UniProt Q92922); assay: as above
# [29] = target: SS18L1 (human) (UniProt O75177); assay: as above
# [30] = target: SMARCD3 (human) (UniProt Q6STE5); assay: as above
# [31] = target: SMARCD1 (human) (UniProt Q96GM5); assay: as above
# [32] = target: ARID1B (human) (UniProt Q8NFD5); assay: as above
# [33] = target: ARID1A (human) (UniProt O14497); assay: as above
# [34] = target: SMARCE1 (human) (UniProt Q969G3); assay: as above
# [35] = target: SMARCB1 (human) (UniProt Q12824); assay: as above
# [36] = target: SMARCC2 (human) (UniProt Q8TAQ2); assay: as above
# [37] = target: BCL7A (human) (UniProt Q4VC05); assay: as above
# Sequence of SMARCD2 (human) (Q92925 whole entry): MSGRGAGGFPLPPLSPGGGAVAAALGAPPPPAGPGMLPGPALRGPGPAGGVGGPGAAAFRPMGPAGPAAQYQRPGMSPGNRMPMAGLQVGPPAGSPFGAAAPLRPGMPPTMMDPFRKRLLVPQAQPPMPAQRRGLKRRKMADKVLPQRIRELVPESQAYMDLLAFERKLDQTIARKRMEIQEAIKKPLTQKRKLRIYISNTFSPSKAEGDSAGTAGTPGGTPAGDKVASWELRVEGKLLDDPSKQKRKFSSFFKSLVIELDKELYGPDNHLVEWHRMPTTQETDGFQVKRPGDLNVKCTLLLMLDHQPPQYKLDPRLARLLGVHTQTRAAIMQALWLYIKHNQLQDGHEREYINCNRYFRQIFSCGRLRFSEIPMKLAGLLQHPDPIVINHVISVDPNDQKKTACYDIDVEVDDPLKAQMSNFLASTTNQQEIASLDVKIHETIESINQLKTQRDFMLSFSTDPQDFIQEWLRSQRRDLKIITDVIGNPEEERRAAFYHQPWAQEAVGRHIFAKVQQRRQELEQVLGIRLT
substance,measurement,setting,value
HA-BRD7 (from UniProt Q9NPI1 1-651),Total,[1],1 peptides
same,Unique,[1],1 peptides
same,Total,[2],146 peptides
same,Unique,[2],85 peptides
same,Total,[3],59 peptides
same,Unique,[3],34 peptides
same,Total,[4],17 peptides
same,Unique,[4],10 peptides
same,Total,[5],58 peptides
same,Unique,[5],31 peptides
same,Total,[6],44 peptides
same,Unique,[6],28 peptides
same,Total,[7],107 peptides
same,Unique,[7],53 peptides
same,Total,[8],157 peptides
same,Unique,[8],67 peptides
same,Total,[9],203 peptides
same,Unique,[9],83 peptides
same,Total,[10],404 peptides
same,Unique,[10],147 peptides
same,Total,[11],23 peptides
same,Unique,[11],20 peptides
same,Total,[12],1 peptides
same,Unique,[12],1 peptides
same,Total,[13],81 peptides
same,Unique,[13],40 peptides
same,Total,[14],59 peptides
same,Unique,[14],26 peptides
same,Total,[15],136 peptides
same,Unique,[15],64 peptides
same,Total,[16],4 peptides
same,Unique,[16],3 peptides
same,Total,[17],36 peptides
same,Unique,[17],21 peptides
HA-BRD9 (from UniProt Q9H8M2 1-597),Total,[18],16 peptides
same,Unique,[18],14 peptides
same,Total,[2],49 peptides
same,Unique,[2],27 peptides
same,Total,[4],3 peptides
same,Unique,[4],3 peptides
same,Unique,[6],10 peptides
same,Total,[19],62 peptides
same,Unique,[19],33 peptides
same,Total,[20],1 peptides
same,Unique,[20],1 peptides
same,Total,[7],31 peptides
same,Unique,[7],20 peptides
same,Total,[9],53 peptides
same,Unique,[9],36 peptides
same,Total,[21],33 peptides
same,Unique,[21],22 peptides
same,Total,[17],6 peptides
same,Unique,[17],5 peptides
HA-DPF2 (from UniProt Q92785 1-391),Total,[22],130 peptides
same,Unique,[22],74 peptides
same,Total,[23],51 peptides
same,Unique,[23],32 peptides
same,Total,[24],13 peptides
same,Unique,[24],7 peptides
same,Total,[25],61 peptides
same,Unique,[25],23 peptides
same,Total,[26],2 peptides
same,Unique,[26],2 peptides
same,Total,[27],88 peptides
same,Unique,[27],47 peptides
same,Total,[28],359 peptides
same,Unique,[28],87 peptides
same,Total,[29],3 peptides
same,Unique,[29],2 peptides
same,Total,[30],23 peptides
same,Unique,[30],20 peptides
same,Total,[31],83 peptides
same,Unique,[31],37 peptides
same,Total,[32],147 peptides
same,Unique,[32],85 peptides
same,Total,[33],311 peptides
same,Unique,[33],114 peptides
same,Total,[34],118 peptides
same,Unique,[34],40 peptides
same,Total,[35],62 peptides
same,Unique,[35],22 peptides
same,Total,[36],105 peptides
same,Unique,[36],52 peptides
same,Total,[37],36 peptides
